In publication PMC10348774:

B1: ADAM metallopeptidase domain 10 (ADAM10): tunicamycin (protein)
parent chain: MVLLRVLILLLSWAAGMGGQYGNPLNKYIRHYEGLSYNVDSLHQKHQRAKRAVSHEDQFLRLDFHAHGRHFNLRMKRDTSLFSDEFKVETSNKVLDYDTSHIYTGHIYGEEGSFSHGSVIDGRFEGFIQTRGGTFYVEPAERYIKDRTLPFHSVIYHEDDINYPHKYGPQGGCADHSVFERMRKYQMTGVEEVTQIPQEEHAANGPELLRKKRTTSAEKNTCQLYIQTDHLFFKYYGTREAVIAQISSHVKAIDTIYQTTDFSGIRNISFMVKRIRINTTADEKDPTNPFRFPNIGVEKFLELNSEQNHDDYCLAYVFTDRDFDDGVLGLAWVGAPSGSSGGICEKSKLYSDGKKKSLNTGIITVQNYGSHVPPKVSHITFAHEVGHNFGSPHDSGTECTPGESKNLGQKENGNYIMYARATSGDKLNNNKFSLCSIRNISQVLEKKRNNCFVESGQPICGNGMVEQGEECDCGYSDQCKDECCFDANQPEGRKCKLKPGKQCSPSQGPCCTAQCAFKSKSEKCRDDSDCAREGICNGFTALCPASDPKPNFTDCNRHTQVCINGQCAGSICEKYGLEECTCASSDGKDDKELCHVCCMKKMDPSTCASTGSVQWSRHFSGRTITLQPGSPCNDFRGYCDVFMRCRLVDADGPLARLKKAIFSPELYENIAEWIVAHWWAVLLMGIALIMLMAGFIKICSVHTPSSNPKLPPPKPLPGTLKRRRPPQPIQQPQRQRPRESYQMGHMRR
B2: ADAM metallopeptidase domain 10 (ADAM10): DPAGT1 inhibition/knockdown + Eer I or MG132 (protein)
parent chain: B1 parent chain
B3: ADAM metallopeptidase domain 10 (ADAM10): N267Q (protein)
parent chain: B1 parent chain
B4: ADAM metallopeptidase domain 10 (ADAM10): DPAGT1 silencing (protein)
parent chain: B1 parent chain
B5: ADAM metallopeptidase domain 10 (ADAM10): N278Q (protein)
parent chain: B1 parent chain

Legend:
[1] = flow cytometry of membrane ADAM10; details: glycan lost; control: control SK-BR-3
[2] = IB of endogenous pre- and matADAM10; details: glycan lost; control: untreated / vector SK-BR-3
[3] = IB after Eer I or MG132 rescue; details: glycan lost; control: untreated SK-BR-3
[4] = IB of precursor and mature forms; details: glycan lost; control: wild type (implied)
[5] = IB and IF with ER marker Calnexin; details: glycan lost; control: wild type (implied)

| Protein | localisation_or_trafficking [1] | expression_or_secretion [2] | other results |
| --- | --- | --- | --- |
| B1 | decreases | decreases |  |
| B2 |  |  | other: proteolytic processing [3]: abolishes |
| B3 |  |  | other: proteolytic processing [4]: no change |
| B4 | decreases | decreases |  |
| B5 |  |  | localisation_or_trafficking [5]: changes |
